The text below walks through data of patent US4839466A, “Insulin activity messengers” (The Rockefeller University, priority 1987, dated 1989).

One data set has as its system PI-glycan PLC. Description: Effects of cations and sulfhydryl reagents on PI-glycan PLC (mfVSG hydrolysis). Type of data set: biochemical, rat. The note with it: 25 nM mfVSG, 2 hr at 37° C.; for Activity (dpm/2 hr): no addition 3970. As to the method:
Assay of PI-glycan PLC Activity. Enzyme activity was assayed at 37° C. in a final volume of 1 ml with [^3 H]myristate-labeled C-terminal glycopeptide in 25 mM Tris, pH 7.4, with 0.1% NP-40. The reaction was terminated after 1 hr. by extraction with 1 ml toluene. Organic and aqueous phases were separated by brief centrifugation at 100 ×g and the organic phase was taken to dryness in vacuo, redissolved in 40 ul of chloroform:methanol (2:1) containing 5 ug dimyristylglycerol, and spotted on a Silica G TLC plate which had been preactivated by baking at 125° C. for 1-2 hr. The plate was developed twice in petroleum ether:diethyl ether:acetic acid (70:30:2) and then stained with iodine vapor to localize DAG. The DAG region was scraped and counted. Alternatively, 0.5 ml of the organic phase was taken directly for liquid scintillation counting.
Samples from each stage of the purification were incubated in 1 ml with 25 nM [3H]mfVSG for 2 hr at 37° C. and then extracted twice with 1 ml chloroform:methanol (200:1). The organic phases were taken to dryness and analyzed by TLC as described under Experimental Procedures. Each assay was performed in duplicate and was consistant within 10%.
Purified PI-glycan PLC was incubated with 25 nM mfVSG in the presence of the indicated reagents for 2 hr at 37° C. Enzyme activity was assayed as described for Table VIII. All assays were performed in duplicate variance was less than 10%.

Another data set has as its system BC3 Hl cells. Nature of the data set: Diacylglycerol and phosphatidic acid production in labeled BC3 Hl myocytes. Type of data set: cell-based, murine. As to the method:
FIG. 12--Time Course of Diacylglycerol and Phosphatidic Acid Production in Response to Insulin. Myocytes were incubated for 20 hrs. in serum free DMEM with [9,10^3 H]myristic acid (New England Nuclear), complexed 1:1 to bovine serum albumin. Insulin was added to cells in fresh media for the designated intervals, and reactions were stopped by removal of media and addition of 1 ml chloroform/methanol/1N HCl (200:100:1). 0.6ml H2 O was added and upper aqueous phases were discarded following centrifugation at 500×g for 5 minutes. The lower, organic phases were dried under N2 and resuspended in 1 ml diethyl ether followed by addition of 1 […]. The upper ether phase was aspirated and the lower phase reextracted with 1 ml diethyl ether. The combined ether phases, containing diacylglycerol, were dried under N2, resuspended in chloroform and spotted on silica gel G plates which were preactivated at 60° C. for 1 hr. Plates were twice developed in petroleum ether/diethyl ether/glacial acetic acid (70:30:2). Five ug of unlabeled dimyristoylglycerol were added to each sample. Spots were visualized by iodine staining. To the lower aqueous phases from the ether extraction were added 1 ml of chloroform/methanol (2:1). Following centrifugation, the resulting upper aqueous phases were discarded and the lower organic phases dried under N2, resuspended in chloroform/methanol/H2 O (9:7:2) and spotted on "soft plus" silica gel plates. These were developed in chloroform/pyridine/70% formic acid (50:30:7), and phosphatidic acid was identified by an iodine stained standard. Lipids were scraped and radioactivity determined in a liquid scintillation counter.
BC3 Hl cells were cultured on collagen coated multiwell plates or petri dishes in Dulbecco's minimal essential medium (DMEM) supplemented with 20% Nu serum or 10% fetal calf serum. Cells were grown to maximal density and confluence, at which time they become responsive to insulin. Radiolabeled precursors were added for 20 hrs. in serum-free medium. [^3 H]Myristic and arachidonic acids were complexed 1:1 to bovine serum albumin prior to addition.
Following preincubations with the appropriate isotopes, cells were resuspended in DMEM without serum and treated with 10 nM insulin at the designated intervals. Reactions were terminated by the addition of 1 ml chloroform/methanol/1N HCl (200:100:1), followed by 0.5 ml 10 mM formic acid. Following centrifugation at 500 x g for 5 min., the upper phase was discarded. For phospholipid analyses, the lower, organic phase was dried under N2, resuspended in chloroform/methanol/H2 O (9:7:2) and spotted on oxalate impregnated silica gel G plates. These were sequentially developed in chloroform/acetone/methanol/glacial acidic acid/H2 O (10:4:2:2:1) and chloroform/methanol/4N NH4 OH (45:35:10). One cm regions were scraped and eluted with chloroform/methanol (2:1) and counted. Phosphoinositide standards were identified by iodine staining.
For analysis of neutral lipids, the chloroform/methanol organic phases were dried under N2 and resuspended in 1 ml diethyl ether followed by addition of 1 ml 50 mM formic acid. The upper ether phase was aspirated and the lower aqueous phase was reextracted with 1 ml diethyl ether. The pooled ether phases were dried under N2, resuspended in chloroform and spotted on silica gel G plates which were preactiviated at 60° C. for 1 hr. Plates were twice developed in petroleum ether/diethyl ether/glacial acetic acid (70:30:2). Five ug of unlabeled dimyristoyl glycerol, myristic acid and monomyristoyl glycerol were added as carriers to each sample.

Data set [1] has as its system cAMP phosphodiesterase. Description: Generation of an enzyme modulator from liver plasma membranes, cAMP phosphodiesterase readout. The format is biochemical, rat. The protocol: (§1) Purification of the Enzyme Modulator. Bovine liver particulate fraction was prepared as described previously [Saltiel A. R., (1984) "Preparation and Characterization of Putative Insulin Mediators from Liver", METHODS IN DIABETES […], eds. J. Larner, S. Pohl, I:73]. Solutions were incubated in 5 mM ammonium bicarbonate, pH 7.4 with 10 nM insulin or 1 ug/ml PI-PLC as described in the figure legends. Following incubation, solutions were acidified to pH 4.0 and centrifuged at 35,000 x g for 20 minutes. Resulting supernatants were extracted with chloroform/methanol (2:1). The upper aqueous phase was aspirated and methanol was evaporated. Enzyme modulating activities were purified as described in Publication No. 6 listed earlier herein. Briefly, the extract was chromatographed on DEAE-Cellulose and eluted with 0.25M triethylamine (TEA)-formate, pH 3.75. This was followed by chromatography on C-18 reversed phase resin, in the same buffer, followed by Dowex 50W X-4 in 50 mM TEA-formate, pH 3.0. The resulting eluate was lyophilized, resuspended in 50 mM TEA-formate, pH 4.5 and sequentially chromatographed on QAE-Sephadex, SAX HPLC and a P-2 gel filtration column. Only the cyclic inositol phosphate derivative residing in Peak I was examined.
(§2) Enzyme Assays. The low Km cAMP PDE was assayed in a rat adipocyte particulate fraction as previously described [Saltiel, A. R., Steigerwalt,R. W., (1986) "Purification of Putative Insulin-Sensitive cAMP Phosphodiesterase or its Catalytic Domain From Rat Adipocytes", DIABETES, 35:698] and as later modified in Publication No. 6. Activity was linear throughout 20 min. and proportional to protein concentration. Only the low Km species of the enzyme was present in this fraction. PDH activity was assayed in liver mitoplasts after preincubation with ATP as previously described [Saltiel et al., (1982) PROC. NATL. ACAD. SCI. U.S.A., 79:3513.]. Adenylate cyclase activity was also assayed in purified adipocyte plasma membranes. For all enzyme assays, variability was less than 5%.
(§3) Liver membranes were treated with or without 10 nM insulin or 1 ug/ml PI-PLC for 10 min. at 37° C. Following cetrifugation, the supernatants were extracted and purified up to and including the SAX HPLC step. Purified extracts were added to enzyme assays at a final dilution of 1:10. Enzyme activities were assayed with no additions or after addition of purified extracts from control, insulin or PIPPLC treated membrane. Percent of basal activity is expressed in parentheses. ^1 expressed as pmoles/mg protein-min. ^2 expressed as nmoles/mg protein-min.

Another data set deals with Pyruvate Dehydrogenase. Nature of the data set: Generation of an enzyme modulator from liver plasma membranes, pyruvate dehydrogenase readout. The format is biochemical, rat. As to the method: as §1, §2, §3
Data set [2] in a line: PI-PLC treatment of lipids extracted from labeled BC3 Hl cells, TLC. Type of data set: biochemical, murine. To be noted: PI-PLC 30 min. The protocol: FIG. 8--SAX HPLC of Radiolabeled Mediators Produced by PI-PLC. Cells were prelabeled as described in FIG. 7, extracted in chloroform/methanol/1N HCl (200:100:1) and centrifuged at 1000 x g for 10 min. The supernatant was dried under N2 and resuspended in 1 mil of 50 mM ammonium bicarbonate, pH 7.4. These solutions were treated with 0.1 ug/ml PI-PLC from S. aureus for 30 min. at 37° C. Reactions were terminated by reextraction with 1 ml of chloroform/methanol/1N HCl (200:100:1) and aqueous and organic phases separated. The aqueous phases were then purified as described in FIG. 7 and chromatographed on SAX HPLC column, eluted as described.
FIG. 10--Thin Layer Chromatography of the Radiolabeled Precursor After PI-PLC Treatment. Cells were labeled, extracted, treated with or without PI-PLC and reextracted as described in FIG. 8. Organic phases were chromatographed on thin layer plates as detailed in FIG. 9.

A further data set deals with Adenylate Cyclase. Description: Generation of an enzyme modulator from liver plasma membranes, adenylate cyclase readout. Type of data set: biochemical, rat. As to the method: as §1, §2, §3
Data set [3] relates to cAMP phosphodiesterase. Nature of the data set: Generation of PDE messenger from liver membranes by insulin or PI-PLC; extracts assayed on cAMP phosphodiesterase. The format is biochemical, rat. As to the method:
These were generated from bovine liver particulate fractions by a modification of previously described methods. Particulate fraction was prepared from 100 g of bovine liver, and suspended in […] ammonium bicarbonate, pH 7.4. (Buffer A) at a final concentration of 2-4 mg protein/ml. This solution was incubated with […] for 10 min at 37° C., acidified to pH 4.0 with formic acid and sedimented at 45,000 g for 20 min. An equal volume of chloroform/methanol (2:1) was added to the supernatant, and the upper phase was aspirated and methanol was evaporated.
In the tests the results of which are tabulated above, liver membranes were treated as indicated for 10 min at 37° C., centrifuged and supernatants were extracted and purified up to and including the Dowex 50WX-4 step as described earlier herein under "Experimental Frocedures".
Partially purified extracts were assayed for ability to modulate cAMP phosphodiesterase. Basal activity was 56.2 pmoles/mg protein^-1 -min^-1.

[4] abbreviates: cells incubated with [3H]arachidonic acid.

For `O=C(O)CN(CCOCCOCCN(CC(=O)O)CC(=O)O)CC(=O)O` [EGTA], in the data set with PI-glycan PLC (addition at 100 uM), the “% control” value amounted to 148 % control and the “Activity (dpm/2 hr)” value is on record as 5900 dpm/2 hr.

Take `CNC[C@H](O)c1ccc(O)c(O)c1` [epinephrine]: the “change in [3H]myristoyl diacylglycerol” value in the data set on BC3 Hl cells ([3H]myristate labeled cells) is recorded as “no significant change”. In the data set with BC3 Hl cells (setting [4]), the “change in [3H]arachidonyl diacylglycerol” value was “rapid increase” and the “time of maximal increase in [3H]arachidonyl diacylglycerol” value is 1 min.

Consider `OCCS` [2-mercaptoethanol], for which, in the data set on PI-glycan PLC (addition at 50 mM), the “% control” value worked out at 190 % control and the “Activity (dpm/2 hr)” value is recorded as 7564 dpm/2 hr.

As to `[Cl][Hg][Cl]` [HgCl2], in the data set with PI-glycan PLC (addition at 100 uM), the “% control” value worked out at 17 % control and the “Activity (dpm/2 hr)” value came out at 677 dpm/2 hr.

B1: PI-PLC: purified phosphatidylinositol specific phospholipase C from S. aureus (protein, UniProt P45723 27-312, looked up)
1-phosphatidylinositol …: DGKHLTEINIPGSHDSGSFTLKDPVKSVWAKTQDKDYLTQMKSGVRFFDIRGRASADNMISVHHGMVYLHHELGKFLDDAKYYLSAYPNETIVMSMKKDYDSDSKVTKTFEEIFREYYYNNPQYQNLFYTGSNANPTLKETKGKIVLFNRMGGTYIKSGYGADTSGIQWADNATFETKINNGSLNLKVQDEYKDYYDKKVEAVKNLLAKAKTDSNKDNVYVNFLSVASGGSAFNSTYNYASHINPEIAKTIKANGKARTGWLIVDYAGYTWPGYDDIVSEIIDSNK
Take B1: in the data set on cAMP phosphodiesterase [1] (as E41), the “cAMP Phosphodiesterase, percent of basal activity” value is listed as 311.1%. Further, in the data set with cAMP phosphodiesterase [1] (extract of liver membranes treated with 10 nM insulin or 1 ug/ml PI-PLC 10 min. 37° C., purified to SAX HPLC, dilution 1:10, no addition 61.7±4.2, control membranes 78.5±5.6), the “cAMP Phosphodiesterase activity” value came out at 192±5 pmoles/mg protein-min. Besides, in the data set with Pyruvate Dehydrogenase (as E43), the “Pyruvate Dehydrogenase, percent of basal activity” value was determined as 296.6%. Also, the “Pyruvate Dehydrogenase activity” value in the data set with Pyruvate Dehydrogenase (extract as E41, no addition 1.77±0.07, control membranes 2.45±0.20) was found to be 5.25±0.40 nmoles/mg protein-min. For the same molecule, in data set [2], the “decrease in [3H]glucosamine labeling of the precursor spot” value worked out at 40%, the “decrease in [3H]inositol labeling of the precursor spot” value amounted to 60% and the “depletion of PI” value was determined as 50%. The “Adenylate Cyclase, percent of basal activity” value in the data set on Adenylate Cyclase (as E45) turned out to be 25.0%. For the same molecule, the “Adenylate Cyclase activity” value in the data set with Adenylate Cyclase (extract as E41, no addition 272±14, control membranes 210±4) stood at 68.7±7.6 pmoles/mg protein-min. The “stimulation/increase of production of PDE modulating activity from membranes” value with cAMP phosphodiesterase [3] (after partial purification, PI-PLC 1.0 ug/ml) was 6 fold. In the data set on cAMP phosphodiesterase [3] (extract of liver membranes treated 10 min at 37° C. (1.0 nM Insulin, PI-PLC), purified up to Dowex 50WX-4, basal 56.2, untreated membranes 78.5), the “PDE Activity” value is 191.3 pmol mg protein^-1 min^-1.
